Experimental data reported in patent publication US20130273068A1 (published 2013).

Molecular target: T1, human ADP-ribosyl cyclase 2 (BST1; CD157) (human, UniProt Q10588 33-293)
T1 construct: Endogenous BST1 on human cells (A549, H226, U937, AML blasts); also called Bone marrow stromal antigen 1; cell-surface human BST1
T1 sequence: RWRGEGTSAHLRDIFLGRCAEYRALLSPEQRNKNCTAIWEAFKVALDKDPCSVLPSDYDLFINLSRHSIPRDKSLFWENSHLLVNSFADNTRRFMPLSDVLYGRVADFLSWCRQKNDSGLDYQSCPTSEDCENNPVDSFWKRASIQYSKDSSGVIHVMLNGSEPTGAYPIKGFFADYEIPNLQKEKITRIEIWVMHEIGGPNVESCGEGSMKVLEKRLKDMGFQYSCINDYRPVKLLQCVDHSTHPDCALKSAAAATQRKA
Assay: flow cytometry on A549 and H226 cells
Procedure: The specificity of antibodies against the BST1 selected in Example 2 was tested by flow cytometry. To test the ability of the antibodies to bind to the cell surface BST1 protein, the antibodies were incubated with the BST1-expressing cells, A549 and H226, from human lung adenocarcinoma and human lung squamous carcinoma, respectively. Cells were washed in FACS buffer (DPBS, 2% FBS), centrifuged and resuspended in […] of the diluted primary BST1 antibody (also diluted in FACS buffer). The antibody-A549 complex was incubated on ice for 60 min and then washed twice with FACS buffer as described above. The cell-antibody pellet was resuspended in 100 μl of the diluted secondary antibody (also diluted in FACS buffer) and incubated on ice for 60 min on ice. The pellet was washed as before and resuspended in […] FACS buffer. The samples were loaded onto the BD FACScanto II flow sytometer and the data analyzed using the BD FACSdiva software.

B1: BST1_A3 (Fab, V domains shown)
VH: QVQLQQSRAELVMPGASVKMSCKTSGYTFSDYWVHWVRQRPGQGLEWIGAIDGSDTFNDYSQKFKGRATLTVDESSSTVYMQLSSLTSEDSAVYYCARGGLLQYWGQGTTLTVSS
VL: DIQLTQSPASLSASVGETVTITCRASENIYSYLAWYQQKQGKSPQLLVYNTKTLGEGVPSRFSGSGSGTQFSLKINSLQPEDFGSYYCQHHYGTPFTFGSGTKLEIKR
  binding result: binds
